Source: the nanobody polyreactivity screen of Harvey et al. (2022)

test: yeast display, Sf9 membrane polyspecificity reagent, FACS + sequencing; frameworks hold sequencing errors
Procedure, shortened: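 Nanobodies came from a synthetic yeast display library in Saccharomyces cerevisiae BJ5465, induced with galactose for 36–48 hours and stained for 1 hour at 4 °C with 10% biotinylated, detergent-solubilized Sf9 membrane reagent. Cells were enriched on streptavidin microbeads and then FACS-sorted, with low and high (top ~1%) gates set on anti-HA fluorescence for expression and streptavidin fluorescence for reagent binding. Each polyreactivity label reflects the gate a clone came from. Genes were amplified by colony PCR, sequenced by MiSeq 2 × 250 and filtered by CDR length.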

Sequence	polyreactivity (PSR sort gate)
QVQLVESGGGLVQAGGSLRLSCAASGSTSVYAMGWYRQAPGKERELVAAITRGGSTYYADSVKGRFTISRDNAKNTVYLQMNRLKPEDTAVYYCAVETYYSIFDIYDYWGQGTQVTVSS	low polyreactivity
QVQLVESGGGLVQAGGSLRLSCAASGSTSWIYAMGWYRQAPGKERELVAAISGRDGSTNYADSVKGRFTISRDNAKNTVYLQMNSLKPEDTAVYYCNATGRRFNRYGGDYWGQGTQVTVSS	high polyreactivity
QVQLVESGGGLVQAGGSLRLSCAASGSTSWIYAMGWYRQAPGQERELVAAISGRDGSTNYADSVKGRFTISRDNAKNTVYLQMNSLKPEDTAVYYCASYLYKSRYLPEYDYWGQGTQVTVSS	high polyreactivity
QVQLVESGGGLVQAGGSLRLSCAASGSTSYDYAMGWYRQAPGKERELVAAISRRGGSTYYADSVKGRFTISRDNAKNTVYLQMNSLKPEDTAVYYCAARSYSYLGWFSYDYWGQGTQVTVSS	low polyreactivity
QVQLVESGGGLVQAGGSLRLSCAASGSTSYVYATGGYRQAPGKERELVAAISGSGGRTYYADSVKGRFTISRDNAKNTVYLQMNSLKPEDTAVYYCNALPRPSYPFDYWGQGTQVTVSS	high polyreactivity
QVQLVESGGGLVQAGGSLRLSCAASGSTSYYYAMGWYRQAPGKERELVAAITTSGGSTYYADSVKGRFTISRDNAKNTVYLQMNSLKPEDTAVYYCATGYLYFTSYRYNYWGQGTQVTVSS	low polyreactivity
QVQLVESGGGLVQAGGSLRLSCAASGSTVYVYTMGGYRQAPGKERELVAANSLSGDNTYYADSVKGRFTISRDNAKNTVYLQKNSLKPEATAVYYCNADIIGFPADYLYDYWGQGTQVTVSS	low polyreactivity
QVQLVESGGGLVQAGGSLRLSCAASGSTVYYNAMGWYRQAPGKERELVADISWRGGITYYADSVKGRFTISRDNAKNTVYLQMNSLKPAETAVYYCNADAESFDDGYWGQGTQVTVSS	low polyreactivity
QVQLVESGGGLVQAGGSLRLSCAASGSTWNRNPMGWYRQAPGKERELVAAISWRGDSTSYADSVKGRFTISRDNAKNTVYLQMNSLKPEDTAVYYCATAHDYAFYRYWYVPSEYNYWGQGTQVTVSS	low polyreactivity
QVQLVESGGGLVQAGGSLRLSCAASGSTYAGNAIGWSRQAPRKERELVAAIDSSTGSTYYADSVKGRFTISRDNAKNTVYLQMNSLNPEDTAVYYCNKTSFLVKLDYWGQGTQVTVSS	low polyreactivity
QVQLVESGGGLVQAGGSLRLSCAASGSTYAIYAMGSYRQAPGKERELVASISGGSTNYADSVKGRFTISRDNAKNTVYLQMNSLKPEDTAVYYCAARGALHHWYRYDYWGQGTQVTVSS	low polyreactivity
QVQLVESGGGLVQAGGSLRLSCAASGSTYGYTMGWYRQAPGKERELVADITSGGTTNYADSVKGRFTISRDNAKNTVYLQMNSLKPEDTAVYYCATRGAEWGWLGSIFNPFDYWGQGTQVTVSS	low polyreactivity
QVQLVESGGGLVQAGGSLRLSCAASGSTYRIYAMGWYRQAPGKERELVAAITRSGGSTYYADSVKGRFTISRDNAKNTVYLQMNSMKPEDTAVYYCNRRGAYPAKYDYWGQGTQVTVSS	high polyreactivity
QVQLVESGGGLVQAGGSLRLSCAASGSTYRTYPMGWYRQAPGKERELVASISYRSGRTYYADSVKGRFTISRDNAKNTVYLPMNSLKPEDTAVYYCNSRMYGVISRMDYWGQGTQVTVSS	high polyreactivity
QVQLVESGGGLVQAGGSLRLSCAASGSTYSYYAMGWYRQAPGKERELVAAITTSGGRTYYADSVKGRFTISRDNAKNTVYLQMNSLKPEDTAVYYCNARRHWYSAWGYDYWGQGTQVTVSS	high polyreactivity
QVQLVESGGGLVQAGGSLRLSCAASGSTYVSNAMGWYRQAPGKERELVAAISTGGGTCYADSVKGRFTISRDNAKNTVYLQMNSLKPEDTAVYYCNAVYVWWDGWGLYYWGQGTQVTVSS	low polyreactivity
QVQLVESGGGLVQAGGSLRLSCAASGSTYYYAMGWYIQEPGKEREFVAAISASGGSTYYADSVKGRFTISRDNAKNTVYLQMNSLKPDDTAGYYCTPLGYGYWGQGTQVTVSS	high polyreactivity
QVQLVESGGGLVQAGGSLRLSCAASGSTYYYAMGWYREAPGKERELVAAISSSSGSTYYADSVKGRFTISRDNAKNTVYLQLNSLKPEDTAVYYCAAEGYKGWVYEYDYWGQGTQVTVSS	low polyreactivity
QVQLVESGGGLVQAGGSLRLSCAASGSTYYYYAMGSYRPAPGKERELVAAINTSGGITYYADSVKGRFTISRDNAKNTVYLQMNSLKPEDTAVYYCAARNRSYCGTFGSYNYDYWGQGTQVTVSS	high polyreactivity
QVQLVESGGGLVQAGGSLRLSCAASGSTYYYYAMGWYRQAPGKERELVASIRSGGNTNYADSVKGRFTISRDNAKNTVYLQMKSLIPEDTAVYYCASRYMGSYSGGNYWGQVTQVTVSS	low polyreactivity
QVQLVESGGGLVQAGGSLRLSCAASGSVFGKYAMGWYRQAPGKERELVAAISRSGGSTYYADSVKGRFTISRDNAKNTVYLQMNSLKPEDTAVYYCAADSPGPWRYDYWGQGTQVTVSS	high polyreactivity

Sequence	polyreactivity (PSR sort gate)
QVQLVESGGGLVQAGGSLRLSCAASGSYTMGWYRQAPGKERELVAAISKSCGSTYYADSVKGRFTISRDNAKNTVYLQMNSLKPDDTAVYYCAAVGWWGTYDYWGQGTQVTVSS	high polyreactivity
QVQLVESGGGLVQAGGSLRLSCAASGTFAFYTMGWYRPAPGKERELVAAISWDGGDTYYADSVKGRFTISRDNAKNTVYLQMNSLKPEDTAVYYCAADYSNSGYGYWGQGTQVTVSS	low polyreactivity
QVQLVESGGGLVQAGGSLRLSCAASGTFDYYDMGWYRQAPGKERELVAGITSGGSTDYADSVKGRFTISRDNAKNTVYLQMNSLKPEDTAVYYCAADPFRIHTYDYWGQGTQVTVSS	low polyreactivity
QVQLVESGGGLVQAGGSLRLSCAASGTFKWYAMGWYRQAPGKERELVAVISSSSSTNYADSVKGRFTISRDNAKNTVYLQMNSLKPKIPAVYYCNAKWTTLFDYWGQGTQVTVSS	high polyreactivity
QVQLVESGGGLVQAGGSLRLSCAASGTFPGNAMGWYRQSPGKERELVATITRGGRTYYADSVKGRFTISRDNAKHTVYLQMNSLKPEDTAVYYCNTRVYFGKIRGYDYWGQGTQVTVSS	high polyreactivity
QVQLVESGGGLVQAGGSLRLSCAASGTFQYNAMGWYRQAPGKERELLAAITSGGSTNYADSVKGRFTISRDNAKNTVYLQMNSLKPEDTAVYYCAAVRRYRASRGSLYYYWGQGTQVTVSS	high polyreactivity
QVQLVESGGGLVQAGGSLRLSCAASGTFSFYALGWYRHAPGKERELVATIRSGGRTYYADSVKGRFTISRDTAKNTVYLQMNSLKPEDTAVYYCAKTGFLGLRQYGYWGQGTQVTVSS	high polyreactivity
QVQLVESGGGLVQAGGSLRLSCAASGTFVTYMGWYRQAPGKERELVAAIRNGGSTNYADSVKGRFTISRDNAKNTVYLQMNSLKPEDTAVYYCAARVTYSRGYRGGSRTKYDYWGQGTQVTVSS	low polyreactivity
QVQLVESGGGLVQAGGSLRLSCAASGTFYKYAMGWYRQAPGKERELVAAISWRGGRTYADSVKGRFKISRDNAKNTVYLQMNSLKPEDTAVYYCNKRFYPEHYYWGQGTQVTVSS	high polyreactivity
QVQLVESGGGLVQAGGSLRLSCAASGTIFSRNAMGWYRQAPGKERELVAAITGSGSSTYYADSVKGRFTISRDNAKNTVYLQMNSLKPEDTAVYYCNAARVYLSEWGQGTQVTVSS	high polyreactivity
QVQLVESGGGLVQAGGSLRLSCAASGTISVFYAKGWYRQAPGKEREFVAAISWRGGRTYYADSVKARFTISRDNAKNTVYLQMNSLKPEDTAVYYCAKDIVRGRSSRYDYWGQGTQVTVSS	high polyreactivity
QVQLVESGGGLVQAGGSLRLSCAASGTNGMGWYRQAPGKERELVAAISGSGGSTYYADSVKGRFTISRDNAKNTVYLQMNSLKPEDTAVYYGAADSIQYTARPYDYWGQGTQVTVSS	low polyreactivity
QVQLVESGGGLVQAGGSLRLSCAASGTTFAGNAMGWYRQAPGKERELVAAITFSGGRTDYADSVKGCFTISRDNAKNTVYLQMNSLKPEDTAVYYCAAPADDTVHYQNYYWGQGTQVTVSS	low polyreactivity
QVQLVESGGGLVQAGGSLRLSCAASGTTFAVYTMGWYRQAPGKERELSTSYADSVKGRFTISRDNAKNTVYLQMNILKQEDTAVYYCNRDFYEFDSNSYRFDYWGQGTQVTVSS	low polyreactivity
QVQLVESGGGLVQAGGSLRLSCAASGTTFRIYSMGWYRQAPGKERELVAGITRRGGSTFYADSVKGRFTISRDTAKNTVYFQMNSLKPEDTAVYYCAARFRGGMDYWGQGTQVTVSS	high polyreactivity
QVQLVESGGGLVQAGGSLRLSCAASGTTFSGNAMGWYRQAPGKERELVAAITRSGSRTYYADSVKGRFTISRDNAKNTVYLQMHSLKPEDTAVYYCAKVGRTGDDYYYWGQGTQVTVSS	high polyreactivity
QVQLVESGGGLVQAGGSLRLSCAASGTTFYYNAMGWYRQAPGKERELVARISRSGGSTYADSVKGRFTISRDNAKNTVYLQMNSLKPEDTAVYYCNADAYGTPEFTSYAVRYDYWGQGTQVTVSS	low polyreactivity
QVQLVESGGGLVQAGGSLRLSCAASGTTIPRNAMGWYRQAPGKERELVAAITSGGSTNYADSVKGRFTISRDNAKNTVYLQMNSLKPEDTAVYYCAADEQVNTQYVVWGDYWGQGTQVTVSS	low polyreactivity
QVQLVESGGGLVQAGGSLRLSCAASGTTLVRYAMGWYRQAPGKERELVASISYSGGSTHYADSVKGRFTISRDNAKNTVYLQMNSLKPEDTAVYYCAARPYYSWGGHYYWGQGTQVTVSS	high polyreactivity
QVQLVESGGGLVQAGGSLRLSCAASGTTYYNAMGWYRQAPGKERELVAAIRFRSGSTYYADSVKGRFTISRDNAKNTVYLQMNSLKPEDTAVYYFAADNKRSWRYAYNYWGQGTQVTVSS	high polyreactivity
